Target: Kv1.3 of rat L6 skeletal muscle cells (rat) (UniProt P15384)
Experiment: cell-based or functional assay

Sequence of Kv1.3 of rat L6 skeletal muscle cells (rat) (P15384 whole entry): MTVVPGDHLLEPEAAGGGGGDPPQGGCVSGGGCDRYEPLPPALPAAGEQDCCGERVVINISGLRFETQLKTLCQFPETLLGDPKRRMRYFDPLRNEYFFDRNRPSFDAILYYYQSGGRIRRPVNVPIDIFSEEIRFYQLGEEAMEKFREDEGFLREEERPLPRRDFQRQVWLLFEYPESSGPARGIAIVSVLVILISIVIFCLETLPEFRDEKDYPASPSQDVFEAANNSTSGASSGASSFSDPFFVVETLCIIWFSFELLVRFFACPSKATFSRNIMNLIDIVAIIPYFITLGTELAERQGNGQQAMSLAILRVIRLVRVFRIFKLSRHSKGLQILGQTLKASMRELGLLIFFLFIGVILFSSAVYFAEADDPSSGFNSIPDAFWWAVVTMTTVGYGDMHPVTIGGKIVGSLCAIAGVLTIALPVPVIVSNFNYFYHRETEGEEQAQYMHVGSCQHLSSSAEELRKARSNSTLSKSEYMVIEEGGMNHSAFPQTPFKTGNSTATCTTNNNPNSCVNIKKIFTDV

In the case of “margatoxin (from UniProt P40755 1-39) (peptide)”, the concentration necessary for 1/2 maximal increase in glucose uptake (L6 cells) is reported as 53 nM.

Reference: patent publication US20030032595A1
